T1: CD3 protein
T1 chain 1: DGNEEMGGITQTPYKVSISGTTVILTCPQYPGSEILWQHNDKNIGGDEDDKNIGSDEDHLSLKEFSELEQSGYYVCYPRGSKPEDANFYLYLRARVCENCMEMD
T1 chain 2: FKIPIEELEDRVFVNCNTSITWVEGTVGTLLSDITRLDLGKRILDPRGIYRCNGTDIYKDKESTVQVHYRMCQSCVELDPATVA


What was measured:
[1] = target: CD26 on CD26 positive human tumor cells (human, UniProt P27487 1-766); test: cell-based or functional assay
CD3 protein = target: T1, CD3 protein; test: BLI (Octet), biotinylated CD3 on SA sensor, antibody 200-1600 nM
Method: CD3 protein was biotinylated with EZ-link NHS-PEG12-Biotin. Biotinylated CD3 protein was immobilized to SA biosensor. Equilibrated in 1×Kinetics solution. The CD3 immobilized to SA biosensor was combined with the humanized bispecific antibody solution to be detected. The concentration gradient of humanized bispecific antibody was 200 nM, 400 nM, 800 nM, and 1600 nM. The biosensor was dissociated in 1×Kinetics solution. Fortebio Data Analysis 8.0 software was used for data analysis and affinity constant values were calculated.

[2] = target: T2, CD26 protein (recombinant human CD26) (human, UniProt P27487 29-766, limits assumed); test: BLI (Octet), biotinylated CD26 on SA sensor, antibody 31.3-500 nM
T2 construct: Amine-coupled, biotinylated or HRP-labeled according to the assay; also called DPP4; rCD26
Method: CD26 protein was biotinylated with EZ-link NHS-PEG12-Biotin. Biotinylated CD26 protein was immobilized to SA biosensor. Equilibrated in 1×Kinetics solution. The CD26 immobilized to SA biosensor was combined with the antibody solution to be detected. The concentration gradients of the antibody solution were 31.3 nM, 62.5 nM, 125 nM, 250 nM, and 500 nM. The biosensor was dissociated in 1×Kinetics solution. Fortebio Data Analysis 8.0 software was used for data analysis and affinity constant values were calculated.

Binder | IC50 of antibody mediated PBMC cytotoxicity against 786-0 cells [1] [ng/mL] | IC50 of antibody mediated PBMC cytotoxicity against NCI-H226 cells [1] [ng/mL] | IC50 of antibody mediated PBMC cytotoxicity against OS-RC-2 cells [1] [ng/mL] | IC50 of antibody mediated PBMC cytotoxicity against PC-3 cells [1] [ng/mL] | Kd (CD3 protein) [nM] | koff (CD3 protein) [s⁻¹] | kon (CD3 protein) [M⁻¹ s⁻¹] | Kd [2] [nM] | kon [2] [M⁻¹ s⁻¹] | koff [2] [s⁻¹]
19G293 (anti-CD26-CD3 humanized bispecific antibody derived from No. 62 mouse antibody) (bispecific antibody) QVQLVQSGAELVKPGASVKLSCKASGFNIKDTYIYWVRQAPGQGLEWIGRIEPMNGNTKYDPKFQGRVTMTANTSINTAYLELSSLRSEDTAVYYCSRGGWLLLYVMDYWGQGTLVTVSSGGGGSGGGGSGGGGSDIVMTQSPLSLSVTPGEPASISCRSDKSLLHSNGNTYLYWFLQKPGQSPQVLIYRMSNLASGVPDRFSGSGSGTDFTLKISRVEAEDVGVYYCFQQLEYPYTFGQGTKLEIKGGGGSDVQLVQSGAEVKKPGASVKVSCKASGYTFTRYTMHWVRQAPGQGLEWIGYINPSRGYTNYADSVKGRFTITTDKSTSTAYMELSSLRSEDTATYYCARYYDDHYCLDYWGQGTTVTVSSGGGGSGGGGSGGGGSDIVLTQSPATLSLSPGERATLSCRASQSVSYMNWYQQKPGKAPKRWIYDTSKVASGVPARFSGSGSGTDYSLTINSLEAEDAATYYCQQWSSNPLTFGGGTKVEIK | 0.974 | 0.405 | 2.25 | 0.565 | 1.73 | 0.000571 | 331000 | < 0.001 | 54600 | –
19G292 (anti-CD26-CD3 humanized bispecific antibody derived from No. 62 mouse antibody) (bispecific antibody) QVQLLQSGAEVVKPGASVKISCKASGFNIKDTYIYWVKQPTGQGLEWIGRIEPMNGNTKYDPKFQGRFTMTANTSINTAYLQLSSLTSEDTAVYYCSRGGWLLLYVMDYWGQGTTVTVSSGGGGSGGGGSGGGGSDIVMTQSASSLPVTPGESVSISCRSDKSLLHSNGNTYLYWFLQRPGQSPQVLIYRMSNLASGVPDRFSGSGSGTEFTLTISRVEAEDVGVYYCFQQLEYPYTFGPGTKLEIKGGGGSDVQLVQSGAEVKKPGASVKVSCKASGYTFTRYTMHWVRQAPGQGLEWIGYINPSRGYTNYADSVKGRFTITTDKSTSTAYMELSSLRSEDTATYYCARYYDDHYCLDYWGQGTTVTVSSGGGGSGGGGSGGGGSDIVLTQSPATLSLSPGERATLSCRASQSVSYMNWYQQKPGKAPKRWIYDTSKVASGVPARFSGSGSGTDYSLTINSLEAEDAATYYCQQWSSNPLTFGGGTKVEIK | 0.805 | 1.1 | 1.04 | 0.339 | 0.568 | 0.000107 | 188000 | < 0.001 | 65800 | –
19G296 (anti-CD26-CD3 humanized bispecific antibody derived from No. 212 mouse antibody) (bispecific antibody) QVQLQESGPGLVKPSETLSLTCTVSGDSITSGYWHWIRQPPGKGLEWIGYINYSGYTYYNPSLKSRFTISRDTSKNQYYLQLNSVTAEDTAVYYCTSERNWGAFAYWGQGTLVTVSSGGGGSGGGGSGGGGSENVLTQSPATLSASPGERATLSCRASSSVISTYLHWYQQKPGQAPKLWIYSTSNLASGVPARFSGSGSGTDYTLTISSVEPEDFAVYYCQQFSGYPYTFGQGTKLEIKGGGGSDVQLVQSGAEVKKPGASVKVSCKASGYTFTRYTMHWVRQAPGQGLEWIGYINPSRGYTNYADSVKGRFTITTDKSTSTAYMELSSLRSEDTATYYCARYYDDHYCLDYWGQGTTVTVSSGGGGSGGGGSGGGGSDIVLTQSPATLSLSPGERATLSCRASQSVSYMNWYQQKPGKAPKRWIYDTSKVASGVPARFSGSGSGTDYSLTINSLEAEDAATYYCQQWSSNPLTFGGGTKVEIK | – | – | – | – | 9.67 | 0.00225 | 233000 | 14.8 | 94500 | 0.0014
19G297 (anti-CD26-CD3 humanized bispecific antibody derived from No. 212 mouse antibody) (bispecific antibody) EVQLQESGPGLVKPSGTLSLTCAVSGDSITSGYWHWIRQAPGKGLEWVGYINYSGYTYYNPSLKSRFTISRDTSKNQYYLQLNSVTAEDTAVYYCTSERNWGAFAYWGQGTLVTVSSGGGGSGGGGSGGGGSENVLTQSPASLSASPGERVTITCRASSSVISTYLHWYQQKPGQAPKLWIYSTSNLASGVPARFSGSGSGTDYTLTISSVEPEDFATYYCQQFSGYPYTFGQGTKLEIKGGGGSDVQLVQSGAEVKKPGASVKVSCKASGYTFTRYTMHWVRQAPGQGLEWIGYINPSRGYTNYADSVKGRFTITTDKSTSTAYMELSSLRSEDTATYYCARYYDDHYCLDYWGQGTTVTVSSGGGGSGGGGSGGGGSDIVLTQSPATLSLSPGERATLSCRASQSVSYMNWYQQKPGKAPKRWIYDTSKVASGVPARFSGSGSGTDYSLTINSLEAEDAATYYCQQWSSNPLTFGGGTKVEIK | – | – | – | – | 10.1 | 0.00367 | 362000 | 4.4 | 91800 | 0.00037
18G272 (anti-CD26-CD3 humanized bispecific antibody derived from No. 62 mouse antibody) (bispecific antibody) DIVMTQSASSLPVTPGEPASISCRSDKSLLHSNGNTYLYWFLQKPGQSPQVLIYRMSNLASGVPDRFSGSGSGTDFTLTISRVEAEDVGVYYCFQQLEYPYTFGQGTKLEIKGGGGSGGGGSGGGGSQVQLVQSGAEVVKPGASVKISCKASGFNIKDTYIYWVRQRTGQGLEWIGRIEPMNGNTKYDPKFQGRLTMTANTSKNTAYLQLSSLTSEDTAVYYCSRGGWLLLYVMDYWGQGTTVTVSSGGGGSDVQLVQSGAEVKKPGASVKVSCKASGYTFTRYTMHWVRQAPGQGLEWIGYINPSRGYTNYADSVKGRFTITTDKSTSTAYMELSSLRSEDTATYYCARYYDDHYCLDYWGQGTTVTVSSGGGGSGGGGSGGGGSDIVLTQSPATLSLSPGERATLSCRASQSVSYMNWYQQKPGKAPKRWIYDTSKVASGVPARFSGSGSGTDYSLTINSLEAEDAATYYCQQWSSNPLTFGGGTKVEIK | 2.27 | 0.143 | 0.284 | 0.379 | – | – | – | – | – | –
17G29 (anti-CD26-CD3 humanized bispecific antibody derived from YS110) (bispecific antibody, also called positive control) EVQLVESGAGVKQPGGTLRLTCTASGFSLTTYGVHWVRQAPGKGLEWVGVIWGDGRTDYDAAFMSRVTISKDTSKSTVYLQMNSLRAEDTAVYYCMRNRHDWFDYWGQGTTVTVSSGGGGSGGGGSGGGGSDILLTQSPSSLSATPGERATITCRASQGIRNNLNWYQQKPGQAPRLLIYYSSNLQSGVPSRFSGSGSGTDFTLTISRLQPEDVAAYYCQQSIKLPFTFGSGTKVEIKGGGGSDVQLVQSGAEVKKPGASVKVSCKASGYTFTRYTMHWVRQAPGQGLEWIGYINPSRGYTNYADSVKGRFTITTDKSTSTAYMELSSLRSEDTATYYCARYYDDHYCLDYWGQGTTVTVSSGGGGSGGGGSGGGGSDIVLTQSPATLSLSPGERATLSCRASQSVSYMNWYQQKPGKAPKRWIYDTSKVASGVPARFSGSGSGTDYSLTINSLEAEDAATYYCQQWSSNPLTFGGGTKVEIK | 1.03 | 0.918 | 0.958 | 1.14 | 12.2 | – | – | 1.18 | 183000 | 0.000216

From US20250179208A1 (ZONHON BIOPHARMA INSTITUTE, published 2025)
